Our source for the Kd values is publication PMC10786891, “Massively parallel profiling of RNA-targeting CRISPR-Cas13d”.

Sequences and labels used below:
T1: EsCas13d, nuclease-dead (Eubacterium siraeum, UniProt B0MS50, R295A;H300A;R849A;H854A)
T1 sequence: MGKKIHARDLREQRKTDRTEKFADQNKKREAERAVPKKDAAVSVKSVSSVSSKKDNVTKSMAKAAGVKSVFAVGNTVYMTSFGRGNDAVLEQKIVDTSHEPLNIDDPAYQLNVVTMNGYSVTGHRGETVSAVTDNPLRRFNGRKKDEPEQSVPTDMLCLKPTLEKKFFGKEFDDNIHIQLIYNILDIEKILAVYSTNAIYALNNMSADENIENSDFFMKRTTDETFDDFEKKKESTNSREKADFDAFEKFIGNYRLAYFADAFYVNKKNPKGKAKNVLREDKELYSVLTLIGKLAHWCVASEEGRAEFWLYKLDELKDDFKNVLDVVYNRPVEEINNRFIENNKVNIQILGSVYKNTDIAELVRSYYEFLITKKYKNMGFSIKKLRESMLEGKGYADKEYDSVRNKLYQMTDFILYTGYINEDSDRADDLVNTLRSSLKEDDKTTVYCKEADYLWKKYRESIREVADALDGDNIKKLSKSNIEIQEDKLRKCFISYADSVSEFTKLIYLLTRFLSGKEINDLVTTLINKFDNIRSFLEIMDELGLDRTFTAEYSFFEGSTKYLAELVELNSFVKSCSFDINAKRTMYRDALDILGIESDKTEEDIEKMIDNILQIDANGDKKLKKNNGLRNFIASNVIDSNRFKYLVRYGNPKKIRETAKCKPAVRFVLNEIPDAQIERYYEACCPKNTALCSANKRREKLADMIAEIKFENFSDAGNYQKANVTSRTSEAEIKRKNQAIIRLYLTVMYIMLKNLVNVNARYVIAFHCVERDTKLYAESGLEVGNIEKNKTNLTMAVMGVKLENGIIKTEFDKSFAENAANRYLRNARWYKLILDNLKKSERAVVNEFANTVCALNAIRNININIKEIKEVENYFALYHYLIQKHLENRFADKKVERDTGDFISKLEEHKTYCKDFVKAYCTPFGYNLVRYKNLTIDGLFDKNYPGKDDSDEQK

B1: target 2 MT 5'PFS GCU 3'PFS AAC (mixed)
RNA 1: CACCCGUGCAAAAUUGCAGGGGUCUAAAACCUUCUCCAAAUUGUUUCAUCCU
RNA 2: GGGAAUGGAUCCACAUCUACGAAUUCGCUAGGAUGAAACAAUUUGGAGAAGAACAGAUCGGAAGAGCACACGU
B2: target 2 MT 5'PFS GGC 3'PFS CAA (mixed)
RNA 1: CACCCGUGCAAAAUUGCAGGGGUCUAAAACCUUCUCCAAAUUGUUUCAUCCU
RNA 2: GGGAAUGGAUCCACAUCUACGAAUUCGGCAGGAUGAAACAAUUUGGAGAAGCAAAGAUCGGAAGAGCACACGU
B3: target 2 MT 5'PFS CAU 3'PFS CCA (mixed)
RNA 1: CACCCGUGCAAAAUUGCAGGGGUCUAAAACCUUCUCCAAAUUGUUUCAUCCU
RNA 2: GGGAAUGGAUCCACAUCUACGAAUUCCAUAGGAUGAAACAAUUUGGAGAAGCCAAGAUCGGAAGAGCACACGU
B4: target 2 MT 5'PFS UUU 3'PFS AAA (mixed)
RNA 1: CACCCGUGCAAAAUUGCAGGGGUCUAAAACCUUCUCCAAAUUGUUUCAUCCU
RNA 2: GGGAAUGGAUCCACAUCUACGAAUUCUUUAGGAUGAAACAAUUUGGAGAAGAAAAGAUCGGAAGAGCACACGU
B5: target 2 MT 5'PFS UCG 3'PFS CUA (mixed)
RNA 1: CACCCGUGCAAAAUUGCAGGGGUCUAAAACCUUCUCCAAAUUGUUUCAUCCU
RNA 2: GGGAAUGGAUCCACAUCUACGAAUUCUCGAGGAUGAAACAAUUUGGAGAAGCUAAGAUCGGAAGAGCACACGU
B6: target 2 MT 5'PFS CAU 3'PFS CCG (mixed)
RNA 1: CACCCGUGCAAAAUUGCAGGGGUCUAAAACCUUCUCCAAAUUGUUUCAUCCU
RNA 2: GGGAAUGGAUCCACAUCUACGAAUUCCAUAGGAUGAAACAAUUUGGAGAAGCCGAGAUCGGAAGAGCACACGU
B7: target 2 MT 5'PFS CAU 3'PFS CCC (mixed)
RNA 1: CACCCGUGCAAAAUUGCAGGGGUCUAAAACCUUCUCCAAAUUGUUUCAUCCU
RNA 2: GGGAAUGGAUCCACAUCUACGAAUUCCAUAGGAUGAAACAAUUUGGAGAAGCCCAGAUCGGAAGAGCACACGU
B8: target 2 MT 5'PFS UUU 3'PFS AAC (mixed)
RNA 1: CACCCGUGCAAAAUUGCAGGGGUCUAAAACCUUCUCCAAAUUGUUUCAUCCU
RNA 2: GGGAAUGGAUCCACAUCUACGAAUUCUUUAGGAUGAAACAAUUUGGAGAAGAACAGAUCGGAAGAGCACACGU
B9: target 2 MT 5'PFS GCU 3'PFS CCG (mixed)
RNA 1: CACCCGUGCAAAAUUGCAGGGGUCUAAAACCUUCUCCAAAUUGUUUCAUCCU
RNA 2: GGGAAUGGAUCCACAUCUACGAAUUCGCUAGGAUGAAACAAUUUGGAGAAGCCGAGAUCGGAAGAGCACACGU
B10: target 2 MT 5'PFS GCU 3'PFS AAG (mixed)
RNA 1: CACCCGUGCAAAAUUGCAGGGGUCUAAAACCUUCUCCAAAUUGUUUCAUCCU
RNA 2: GGGAAUGGAUCCACAUCUACGAAUUCGCUAGGAUGAAACAAUUUGGAGAAGAAGAGAUCGGAAGAGCACACGU
B11: target 2 MT 5'PFS GGC 3'PFS UAC (mixed)
RNA 1: CACCCGUGCAAAAUUGCAGGGGUCUAAAACCUUCUCCAAAUUGUUUCAUCCU
RNA 2: GGGAAUGGAUCCACAUCUACGAAUUCGGCAGGAUGAAACAAUUUGGAGAAGUACAGAUCGGAAGAGCACACGU
B12: target 2 MT 5'PFS GAC 3'PFS CGG (mixed)
RNA 1: CACCCGUGCAAAAUUGCAGGGGUCUAAAACCUUCUCCAAAUUGUUUCAUCCU
RNA 2: GGGAAUGGAUCCACAUCUACGAAUUCGACAGGAUGAAACAAUUUGGAGAAGCGGAGAUCGGAAGAGCACACGU
B13: target 2 MT 5'PFS CUU 3'PFS AUU (mixed)
RNA 1: CACCCGUGCAAAAUUGCAGGGGUCUAAAACCUUCUCCAAAUUGUUUCAUCCU
RNA 2: GGGAAUGGAUCCACAUCUACGAAUUCCUUAGGAUGAAACAAUUUGGAGAAGAUUAGAUCGGAAGAGCACACGU
B14: target 2 MT 5'PFS GGC 3'PFS AGA (mixed)
RNA 1: CACCCGUGCAAAAUUGCAGGGGUCUAAAACCUUCUCCAAAUUGUUUCAUCCU
RNA 2: GGGAAUGGAUCCACAUCUACGAAUUCGGCAGGAUGAAACAAUUUGGAGAAGAGAAGAUCGGAAGAGCACACGU
B15: target 2 MT 5'PFS AAG 3'PFS UCC (mixed)
RNA 1: CACCCGUGCAAAAUUGCAGGGGUCUAAAACCUUCUCCAAAUUGUUUCAUCCU
RNA 2: GGGAAUGGAUCCACAUCUACGAAUUCAAGAGGAUGAAACAAUUUGGAGAAGUCCAGAUCGGAAGAGCACACGU
B16: target 2 MT 5'PFS GGC 3'PFS CAC (mixed)
RNA 1: CACCCGUGCAAAAUUGCAGGGGUCUAAAACCUUCUCCAAAUUGUUUCAUCCU
RNA 2: GGGAAUGGAUCCACAUCUACGAAUUCGGCAGGAUGAAACAAUUUGGAGAAGCACAGAUCGGAAGAGCACACGU
B17: target 2 MT 5'PFS UUU 3'PFS AAU (mixed)
RNA 1: CACCCGUGCAAAAUUGCAGGGGUCUAAAACCUUCUCCAAAUUGUUUCAUCCU
RNA 2: GGGAAUGGAUCCACAUCUACGAAUUCUUUAGGAUGAAACAAUUUGGAGAAGAAUAGAUCGGAAGAGCACACGU
B18: target 2 MT 5'PFS AAG 3'PFS UCU (mixed)
RNA 1: CACCCGUGCAAAAUUGCAGGGGUCUAAAACCUUCUCCAAAUUGUUUCAUCCU
RNA 2: GGGAAUGGAUCCACAUCUACGAAUUCAAGAGGAUGAAACAAUUUGGAGAAGUCUAGAUCGGAAGAGCACACGU
B19: target 2 MT 5'PFS GGC 3'PFS AGG (mixed)
RNA 1: CACCCGUGCAAAAUUGCAGGGGUCUAAAACCUUCUCCAAAUUGUUUCAUCCU
RNA 2: GGGAAUGGAUCCACAUCUACGAAUUCGGCAGGAUGAAACAAUUUGGAGAAGAGGAGAUCGGAAGAGCACACGU
B20: target 2 MT 5'PFS UUU 3'PFS AAG (mixed)
RNA 1: CACCCGUGCAAAAUUGCAGGGGUCUAAAACCUUCUCCAAAUUGUUUCAUCCU
RNA 2: GGGAAUGGAUCCACAUCUACGAAUUCUUUAGGAUGAAACAAUUUGGAGAAGAAGAGAUCGGAAGAGCACACGU
B21: target 2 MT 5'PFS GGC 3'PFS AGC (mixed)
RNA 1: CACCCGUGCAAAAUUGCAGGGGUCUAAAACCUUCUCCAAAUUGUUUCAUCCU
RNA 2: GGGAAUGGAUCCACAUCUACGAAUUCGGCAGGAUGAAACAAUUUGGAGAAGAGCAGAUCGGAAGAGCACACGU
B22: target 2 MT 5'PFS GCU 3'PFS AAU (mixed)
RNA 1: CACCCGUGCAAAAUUGCAGGGGUCUAAAACCUUCUCCAAAUUGUUUCAUCCU
RNA 2: GGGAAUGGAUCCACAUCUACGAAUUCGCUAGGAUGAAACAAUUUGGAGAAGAAUAGAUCGGAAGAGCACACGU
B23: target 2 MT 5'PFS GUA 3'PFS UCU (mixed)
RNA 1: CACCCGUGCAAAAUUGCAGGGGUCUAAAACCUUCUCCAAAUUGUUUCAUCCU
RNA 2: GGGAAUGGAUCCACAUCUACGAAUUCGUAAGGAUGAAACAAUUUGGAGAAGUCUAGAUCGGAAGAGCACACGU
B24: target 2 MT 5'PFS GGC 3'PFS CAG (mixed)
RNA 1: CACCCGUGCAAAAUUGCAGGGGUCUAAAACCUUCUCCAAAUUGUUUCAUCCU
RNA 2: GGGAAUGGAUCCACAUCUACGAAUUCGGCAGGAUGAAACAAUUUGGAGAAGCAGAGAUCGGAAGAGCACACGU
B25: target 1 C6A,A9U (mixed)
RNA 1: CACCCGUGCAAAAAUGCAGGGGUCUAAAACUGAGCGGAUAACCUCUCUAUGG
RNA 2: GGGAAUGGAUCCACAUCUACGAAUUCGUACCAUAGAGAGGUUUUCAGCUCACCGAGAUCGGAAGAGCACACGU
B26: target 1 insG 3' of 20,insG 3' of 8 (mixed)
RNA 1: CACCCGUGCAAAAAUGCAGGGGUCUAAAACUGAGCGGAUAACCUCUCUAUGG
RNA 2: GGGAAUGGAUCCACAUCUACGAAUUCGUACCAGUAGAGAGGUUAUGCCGCUCACCGAGAUCGGAAGAGCACACGU
B27: target 1 C2A,A9U (mixed)
RNA 1: CACCCGUGCAAAAAUGCAGGGGUCUAAAACUGAGCGGAUAACCUCUCUAUGG
RNA 2: GGGAAUGGAUCCACAUCUACGAAUUCGUACCAUAGAGAGGUUUUCCGCUAACCGAGAUCGGAAGAGCACACGU

In general, Kd refers to the equilibrium constant for the complex coming apart.

This data set concerns the target T1, EsCas13d, nuclease-dead. As to the kind of experiment: crRNA (strand 1, pre-loaded); Mg2+; 40 mM Tris-HCl pH 7.5, 150 mM NaCl, 6 mM MgCl2, 1 mM DTT, 0.1% Tween-20, 0.2 mg/ml BSA; 25 C; 10 min per concentration, then washed. The following applies: tags: His6-TwinStrep-SUMO cleaved; N-terminal SNAP kept (SNAP-Surface 488); label: 3' end held by stalled T7 RNA polymerase.
B1 came in with a dissociation constant (Kd) of 10.1 ± 1.9 nM. In turn, B2 registered a dissociation constant Kd of 8.9 ± 1.7 nM. B3 gave an equilibrium dissociation constant (Kd) of 11.5 ± 1.6 nM. The value for B4 was 8.9 ± 1.2 nM; that for B5 was 32 ± 10 nM.

B6 showed a dissociation constant (Kd) of 4.07 ± 0.31 nM.

Consider B7, for which the Kd was determined as 16 ± 6 nM.

The molecule B8 registered a Kd of 7.3 ± 0.8 nM. In the case of B9, the affinity, expressed as Kd, was 17.9 ± 3.4 nM. Regarding B10, the Kd came out at 11.3 ± 2 nM. Consider B11, for which the Kd stood at 18.9 ± 3.5 nM.

On to B12, for which binding was characterised by a dissociation constant (Kd) of 8.9 ± 1 nM. The value for B13 was 3.9 ± 0.4 nM; that for B14 was 10.4 ± 2 nM; that for B15 was 16.3 ± 2.5 nM.

On to B16, for which binding was characterised by a dissociation constant (Kd) of 15.8 ± 3.1 nM. B17 registered an equilibrium dissociation constant (Kd) of 9.9 ± 1.2 nM. This Kd lies about 1.6-fold lower than the previous one. In turn, B18 yielded a Kd of 20 ± 6 nM. Molecule B19 gave an equilibrium dissociation constant (Kd) of 14.9 ± 1.8 nM.

As to B20, the equilibrium dissociation constant (Kd) was determined as 7.1 ± 0.9 nM. The molecule B21 came in with a Kd of 12.1 ± 1.6 nM. The molecule B22 registered a Kd of 12 ± 4 nM.

The molecule B23 came in with a Kd of 18.6 ± 2.7 nM.

In turn, B24 yielded a dissociation constant (Kd) of 12.1 ± 1.4 nM. With B25 the figure was 7.38 ± 0.22 nM; with B26, 40 ± 4 nM. As for B27, the affinity, expressed as Kd, was 8.3 ± 0.4 nM.
